Data published in PMC2696799 (European journal of immunology, 2009).
Values belong to the molecule of their own block, whether it stands above or below them.

Legend:
[1] = target: CD200R ECD (Homo sapiens) (UniProt Q8TD46); conditions: cited from earlier work
CD47 ECD (Homo sapiens) = CD47 ECD (Homo sapiens) (UniProt Q08722); conditions: cited from earlier work
[2] = target: CD200RLa ECD (Mus musculus) (UniProt Q6XJV4); conditions: cited from earlier work
[3] = target: CD200R ECD (Mus musculus) (UniProt Q9ES57); conditions: cited from earlier work
CD58 ECD (Homo sapiens) = CD58 ECD (Homo sapiens) (UniProt P19256); conditions: cited from earlier work
[4] = target: T1, Acid-soluble human collagen type I (from human placenta) (human, UniProt P02452 162-1218; P08123 80-1119); assay: SPR
mCD200R, immobilised = target: T2, mCD200R, immobilised (mouse, UniProt Q9ES57 26-238); assay: SPR
T2 sequence (looked up): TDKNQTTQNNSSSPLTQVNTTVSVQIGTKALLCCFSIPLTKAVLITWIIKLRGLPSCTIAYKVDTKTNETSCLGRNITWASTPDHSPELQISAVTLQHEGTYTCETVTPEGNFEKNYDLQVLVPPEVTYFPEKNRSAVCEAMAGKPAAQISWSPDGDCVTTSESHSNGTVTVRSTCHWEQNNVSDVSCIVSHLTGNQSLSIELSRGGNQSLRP

[5] = target: T3, mCD200RLa/rCD4d3+4, immobilised (mouse, UniProt Q6XJV4 26-241, biotin); assay: SPR
T3 sequence (looked up): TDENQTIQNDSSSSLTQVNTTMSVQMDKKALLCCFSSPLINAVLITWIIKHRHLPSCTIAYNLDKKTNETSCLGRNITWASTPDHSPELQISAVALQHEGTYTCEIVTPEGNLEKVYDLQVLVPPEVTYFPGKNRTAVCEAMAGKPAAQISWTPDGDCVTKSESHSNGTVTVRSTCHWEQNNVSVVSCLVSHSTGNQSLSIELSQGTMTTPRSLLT

[6] = target: T1, Acid-soluble human collagen type I …; assay: SPR; remark: listed apart in the source
[7] = target: (GPO)10 triple-helical peptide, GCO(GPO)10GCOG-NH2; assay: SPR
SPR = target: the molecule itself; assay: SPR

T1 sequence (P02452 162-1218, chain 1 of 2): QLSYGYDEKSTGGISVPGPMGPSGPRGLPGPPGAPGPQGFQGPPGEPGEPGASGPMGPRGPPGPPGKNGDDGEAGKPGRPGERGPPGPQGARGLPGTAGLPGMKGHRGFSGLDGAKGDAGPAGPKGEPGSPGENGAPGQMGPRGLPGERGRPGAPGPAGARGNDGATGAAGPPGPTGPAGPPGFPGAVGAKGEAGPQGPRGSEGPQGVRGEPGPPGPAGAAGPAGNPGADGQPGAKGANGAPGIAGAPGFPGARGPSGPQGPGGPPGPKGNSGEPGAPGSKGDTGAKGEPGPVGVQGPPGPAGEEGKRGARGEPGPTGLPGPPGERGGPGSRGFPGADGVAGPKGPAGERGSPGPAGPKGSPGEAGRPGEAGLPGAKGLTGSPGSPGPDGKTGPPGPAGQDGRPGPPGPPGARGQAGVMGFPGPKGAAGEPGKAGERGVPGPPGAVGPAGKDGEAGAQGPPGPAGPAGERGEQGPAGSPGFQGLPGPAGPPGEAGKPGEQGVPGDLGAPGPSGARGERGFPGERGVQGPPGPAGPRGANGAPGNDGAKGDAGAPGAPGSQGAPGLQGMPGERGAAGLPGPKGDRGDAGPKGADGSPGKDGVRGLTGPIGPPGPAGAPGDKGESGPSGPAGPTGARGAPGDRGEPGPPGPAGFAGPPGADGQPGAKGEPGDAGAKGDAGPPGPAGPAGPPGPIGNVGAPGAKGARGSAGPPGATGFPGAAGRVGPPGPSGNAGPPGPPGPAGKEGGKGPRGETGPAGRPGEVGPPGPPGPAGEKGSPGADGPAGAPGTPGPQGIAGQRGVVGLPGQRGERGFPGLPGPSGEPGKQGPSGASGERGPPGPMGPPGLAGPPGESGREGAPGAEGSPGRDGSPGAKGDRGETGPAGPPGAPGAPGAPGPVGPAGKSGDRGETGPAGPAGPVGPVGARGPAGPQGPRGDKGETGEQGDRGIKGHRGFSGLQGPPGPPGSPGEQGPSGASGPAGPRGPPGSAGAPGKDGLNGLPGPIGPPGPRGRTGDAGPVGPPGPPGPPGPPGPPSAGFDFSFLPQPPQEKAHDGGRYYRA
T1 sequence (P08123 80-1119, chain 2 of 2): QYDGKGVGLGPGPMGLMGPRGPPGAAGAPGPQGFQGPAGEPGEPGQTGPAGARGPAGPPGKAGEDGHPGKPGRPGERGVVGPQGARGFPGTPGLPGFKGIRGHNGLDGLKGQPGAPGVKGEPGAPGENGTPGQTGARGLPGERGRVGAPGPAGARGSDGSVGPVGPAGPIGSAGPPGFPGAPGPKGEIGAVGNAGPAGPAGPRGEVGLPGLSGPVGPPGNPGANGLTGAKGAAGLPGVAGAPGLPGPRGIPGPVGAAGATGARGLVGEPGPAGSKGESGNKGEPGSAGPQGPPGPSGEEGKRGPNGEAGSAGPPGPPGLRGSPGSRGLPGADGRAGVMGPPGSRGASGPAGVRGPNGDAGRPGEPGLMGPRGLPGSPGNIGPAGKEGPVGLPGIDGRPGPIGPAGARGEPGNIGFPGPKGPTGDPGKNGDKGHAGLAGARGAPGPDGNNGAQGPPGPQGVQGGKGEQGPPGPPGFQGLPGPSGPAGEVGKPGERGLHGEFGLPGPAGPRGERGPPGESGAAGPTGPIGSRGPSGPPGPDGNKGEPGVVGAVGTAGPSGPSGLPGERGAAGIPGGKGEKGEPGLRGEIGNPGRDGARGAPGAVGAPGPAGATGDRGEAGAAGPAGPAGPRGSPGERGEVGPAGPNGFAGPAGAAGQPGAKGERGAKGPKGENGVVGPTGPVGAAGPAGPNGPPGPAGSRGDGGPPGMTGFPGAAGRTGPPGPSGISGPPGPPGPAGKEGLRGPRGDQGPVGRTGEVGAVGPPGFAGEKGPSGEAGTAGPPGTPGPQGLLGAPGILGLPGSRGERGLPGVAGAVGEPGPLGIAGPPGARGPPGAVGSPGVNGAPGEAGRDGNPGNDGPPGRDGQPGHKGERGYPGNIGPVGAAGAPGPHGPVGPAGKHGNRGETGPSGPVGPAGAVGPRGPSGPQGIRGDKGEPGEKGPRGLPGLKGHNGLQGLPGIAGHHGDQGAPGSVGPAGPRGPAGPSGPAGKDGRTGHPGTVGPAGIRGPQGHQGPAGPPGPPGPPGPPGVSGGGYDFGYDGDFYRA
Sequence of CD200R ECD (Homo sapiens) (Q8TD46 25-265): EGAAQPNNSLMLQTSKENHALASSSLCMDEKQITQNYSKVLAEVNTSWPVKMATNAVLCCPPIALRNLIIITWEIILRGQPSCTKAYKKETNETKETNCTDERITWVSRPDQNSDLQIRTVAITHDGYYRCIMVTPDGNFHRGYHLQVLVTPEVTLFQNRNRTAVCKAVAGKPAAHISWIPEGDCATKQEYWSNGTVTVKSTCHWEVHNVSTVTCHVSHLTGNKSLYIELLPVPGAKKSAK
Sequence of CD58 ECD (Homo sapiens) (P19256 29-215): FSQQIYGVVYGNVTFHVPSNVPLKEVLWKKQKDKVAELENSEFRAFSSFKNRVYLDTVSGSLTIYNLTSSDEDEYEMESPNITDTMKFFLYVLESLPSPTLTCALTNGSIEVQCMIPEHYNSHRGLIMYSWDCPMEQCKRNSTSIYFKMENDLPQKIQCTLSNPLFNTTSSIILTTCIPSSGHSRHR
Sequence of CD47 ECD (Homo sapiens) (Q08722 19-323): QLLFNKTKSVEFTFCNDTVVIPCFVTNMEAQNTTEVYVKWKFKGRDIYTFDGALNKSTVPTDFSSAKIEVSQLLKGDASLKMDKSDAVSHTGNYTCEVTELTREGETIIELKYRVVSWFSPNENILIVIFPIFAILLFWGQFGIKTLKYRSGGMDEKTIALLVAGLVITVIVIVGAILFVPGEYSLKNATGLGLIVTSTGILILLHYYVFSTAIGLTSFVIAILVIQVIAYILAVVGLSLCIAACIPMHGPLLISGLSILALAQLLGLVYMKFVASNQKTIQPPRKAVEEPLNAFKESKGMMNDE

Molecule: CD200 ECD (from UniProt P41217)
Kd [1]: 2 µM

Molecule: SIRPα ECD (from UniProt P78324)
Kd (CD47 ECD (Homo sapiens)): 2 µM

Molecule: CD200 ECD (from UniProt O54901)
Kd [2]: > 500 µM
Kd [3]: 4 µM

Molecule: CD2 ECD (from UniProt P06729)
Kd (CD58 ECD (Homo sapiens)): 10 µM

response [4]: 2700 RU
B1: hLAIR-1/rCD4d3+4, biotinylated (on beads or on the chip) (domain or fragment, human, UniProt Q6GTX8 22-165, looked up)
chain: QEEDLPRPSISAEPGTVIPLGSHVTFVCRGPVGVQTFRLERDSRSTYNDTEDVSQASPSESEARFRIDSVREGNAGLYRCIYYKPPKWSEQSDYLELLVKESSGGPDSPDTEPGSSAGPTQRPSDNSHNEHAPASQGLKAEHLY
modifications: biotin (biotin ligase BirA) on the sequence near the C terminus

response (mCD200R, immobilised): > 3000 RU
response [5]: > 3000 RU
B2: mCD200/rCD4d3+4 coupled beads (domain or fragment, mouse, UniProt O54901 31-232, looked up)
chain: QVEVVTQDERKALHTTASLRCSLKTSQEPLIVTWQKKKAVSPENMVTYSKTHGVVIQPAYKDRINVTELGLWNSSITFWNTTLEDEGCYMCLFNTFGSQKVSGTACLTLYVQPIVHLHYNYFEDHLNITCSATARPAPAISWKGTGTGIENSTESHFHSNGTTSVTSILRVKDPKTQVGKEVICQVLYLGNVIDYKQSLDKG
modifications: biotin on the tag that can be biotinylated

Kd [6]: 18 µM
Kd [7]: 10 µM
B3: mLAIR-1/rCD4d3+4, soluble monomeric (domain or fragment, mouse, UniProt Q8BG84 22-144, looked up)
chain: QEGSLPDITIFPNSSLMISQGTFVTVVCSYSDKHDLYNMVRLEKDGSTFMEKSTEPYKTEDEFEIGPVNETITGHYSCIYSKGITWSERSKTLELKVIKENVIQTPAPGPTSDTSWLKTYSIY

Kd [6]: 39 µM
Kd [7]: 33 µM
B4: mLilrb4/rCD4d3+4, soluble monomeric (domain or fragment, mouse, UniProt Q64281 24-238, looked up)
chain: GHLPKPIIWAEPGSVIAAYTSVITWCQGSWEAQYYHLYKEKSVNPWDTQVPLETRNKAKFNIPSMTTSYAGIYKCYYESAAGFSEHSDAMELVMTGAYENPSLSVYPSSNVTSGVSISFSCSSSIVFGRFILIQEGKHGLSWTLDSQHQANQPSYATFVLDAVTPNHNGTFRCYGYFRNEPQVWSKPSNSLDLMISETKDQSSTPTEDGLETYQK

B5: mLilrb4/rCD4d3+4, biotinylated (on beads or on the chip) (domain or fragment, mouse, UniProt Q64281 24-238, looked up)
chain: GHLPKPIIWAEPGSVIAAYTSVITWCQGSWEAQYYHLYKEKSVNPWDTQVPLETRNKAKFNIPSMTTSYAGIYKCYYESAAGFSEHSDAMELVMTGAYENPSLSVYPSSNVTSGVSISFSCSSSIVFGRFILIQEGKHGLSWTLDSQHQANQPSYATFVLDAVTPNHNGTFRCYGYFRNEPQVWSKPSNSLDLMISETKDQSSTPTEDGLETYQK
modifications: biotin (biotin ligase BirA) on the sequence near the C terminus
response (SPR): 1750 RU
